Results as given in US9505841B2, “Use of an anti-Ang2 antibody” (Samsung Electronics Co., Ltd., priority 2013, dated 2016).

Experiments:
LLC tumor = assay: Co-administration of anti-Ang2 antibody and cisplatin in LLC lung cancer animal model; assay type: in vivo, mouse; details: LLC mice; antibody 10 mg/kg i.p. every three days, five times; cisplatin 3 mg/kg i.p. once; control Fc of IgG1
Method: The synergistic effect of co-treatment of antibody 10D6 and cisplatin was examined.
In particular, referring to Example 14, LLC tumor cells were subcutaneously injected into mice. When the size of tumors reached 50˜100 mm^3, anti-Ang2 antibody 10D6 was injected at the concentration of 10 mg/kg via an intraperitoneal injection every three days a total of five times. After administering antibody 10D6 twice, 3 mg/kg of cisplatin (Sigma-Aldrich) was intraperitoneally injected once. The size of tumor (V) was calculated using the following formula: Volume (V)=(width)2×length/2
For comparison, the same experiment was performed to a control group treated with Fc of IgG1 and a comparative group treated with antibody 4H10.
In addition, an experiment was performed to examine whether the synergistic effect obtained by co-administration of 10D6 and cisplatin as described above is due to the increased transporting efficiency of the administered cisplatin induced by the vascular normalization by treatment of 10D6. Cisplatin binds to DNA in a living body and induces crosslinking, thereby inducing cell death. Rat monoclonal anti-Cisplatin modified DNA (CP9/19) antibody (1:200, Abcam), which is capable of binding to DNA modified by cisplatin in tumor frozen sections, and hamster anti-CD31 antibody (1:200, Millipore), were used for immunofluorescence staining, and fluorescence images were obtained using LSM5 confocal microscope (Zeiss). In addition, to examine necrotic region, the tumor frozen sections were stained with H&E according to standard protocol, and then, Eosin+ cell region in tumor was observed. The obtained results are illustrated in FIG. 18C.

Akt, eNOS and 42/44 = assay: Phosphorylation of Tie2 downstream signaling proteins in HUVEC (immunoblot); assay type: cell-based, human
Method: To see whether antibody 10D6 induces the activation of the downstream signaling of a Tie2 receptor as well as the activation of the Tie2 receptor itself, the phosphorylation degrees of proteins participating in the downstream signaling when Ang2 alone or Ang2 and antibody 10D6 was treated were tested using immune blotting.
Specifically, HUVEC (ATCC) cells (1×10^6) were cultured in a 6-well culture dish using EGM-2 (Lonza) media at 37° C. and when they reached 80˜90% confluency, the media were replaced with serum-free media (Lonza) and cultured at 37° C. for 6 to 16 hours. The dish was washed once with PBS, and the cultured cells were treated with a mixture prepared by mixing 60 nM of the Ang2 antibody (10D6) with 40 nM of Ang2 protein (R&D systems) and letting them stand for 20 min. and further cultured for 30 min. For comparison, groups in which Ang1 (R&D systems) 4 nM, Ang2 (R&D systems) 40 nM, and Ang2 (R&D systems) 40 nM+anti-Ang2 antibody (Regeneron) 60 nM were treated respectively were prepared.
The cells were washed using PBS, treated with a lysis buffer (Roche), collected to a tube to be dissolved at 4° C. for 30 min. and then, centrifuged at 13,000 rpm for 15 min. to measure a supernatant. A sample buffer (Invitrogen) mixed with a reducing agent was added to 25 ug of a cell lysate, which was boiled at 95° C. for 5 min., and then, applied to NuPAGE Novex 4-12% Bis-Tris gel (Invitrogen) and transferred onto Nitrocellulose membrane (Invitrogen).
To see the presence of the phosphorylation of Akt, eNOS and 42/44 involved in the downstream signaling, the blots were blocked with PBST mixed with 3% (v/v) skim milk (Sigma) for 30 min. and then treated with an anti pAkt antibody, anti p-eNOS antibody, and anti p-42/44 antibody (all of them; cell signaling). The blots were reacted in a stripping buffer (Thermo) for 15 min. and then blocked again to identify Akt, eNOS, and 42/44 using an anti Akt antibody, anti eNOS antibody, and anti 42/44 antibody (all of them; cell signaling).

Tie2 receptor = assay: Tie2 phosphorylation in HUVEC cells (immunoprecipitation/immunoblot); assay type: cell-based, human
Method: As Ang2 induces a change in vascular endothelial cells by binding to a Tie-2 receptor expressed in the vascular endothelial cells to induce the phosphorylation of the receptor and activate it, a test for analyzing an influence of the anti-Ang2 antibody on Tie2 phosphorylation was conducted using a cell-based assay.
For this, HUVEC (ATCC) cells (1×10^6) were cultured in a 100 mm culture dish using EGM-2 (Lonza) media at 37° C. and when they reached 80˜90% confluency, the media were replaced with serum-free media and cultured at 37° C. for 6 to 16 hours. The dish was washed once with PBS and after the replacement with […] sodium orthovanadate (Sigma)-mixed serum free media (Lonza), they were further cultured for 10 min. […]
In addition, referring to the above method, when 60 nM of antibody 10D6 and Ang2 were treated, the phosphorylation level of Tie2 was measured and compared with the case of treating a control antibody (anti-Ang2 antibody (Regeneron) which has MOA of inhibiting binding between Ang2 and Tie2; represented as ‘RG antibody’). After treating with the antibody (10D6 or RG), the blot band density of pTyr and Tie2 was measured using ImageJ software and pTyr/Tie2 ratio was calculated.

B1: 10D6: mouse anti-Ang2 monoclonal antibody from hybridoma KCLRF-BP-00295; heavy chain variable region SEQ ID NO: 7, light chain variable region SEQ ID NO: 9 (antibody, V domains shown)
VH: DVQLQESGPGLVKPSQSLSLTCTVTGYSITSDYAWNWIRQFPGNKLEWMGYINYSGNTDYNPSLKSRSSITRDTSKNQFFLQLNSVTTGDTATYYCARGNFEGAMDYWGQGTSVTVSS
VL: SIVMTQTPKFLLVSAGDRVTITCKASQSVSNDVAWYQQKPGQSPKLLIYYASNRYPGVPDRFTGSGYGTDFTFTISTVQAEDLAVYFCQQDYSSPWTFGGGTKLEIK
modifications: Synthetic (Heavy chain variable region of an anti-Ang2 antibody); Synthetic (Light chain variable region of anti-Ang2 antibody)
tumor size decreased by, compared to the control (LLC tumor): 38.5% | downstream signaling (phosphorylation of Akt, eNOS, 42/44) compared to Ang2 sole-treatment and Ang2 + RG antibody (Akt, eNOS and 42/44; 60 nM 10D6 + 40 nM Ang2, or Ang1 4 nM alone, 30 min): strongly induced | downstream signaling effects relative to Ang1 sole-treatment group (Akt, eNOS and 42/44; 60 nM 10D6 + 40 nM Ang2 vs Ang1 4 nM): at least equal to those in the Ang1 sole-treatment group | Tie2 phosphorylation effect, fold higher than control antibody RG (Tie2 receptor; 60 nM antibody and Ang2): about 8.6 fold | phosphorylation of Tie2 compared to Ang2 treated alone (Tie2 receptor; antibody 600~0.06 nM with 40 nM Ang2, every antibody concentration tested): more strongly induced
